For one data set, the system named is BxPC-3. Kind of data set: MTT Cell Proliferation Assay, BxPC-3. To be noted: 120 hours of exposure. Format: cell-based, human. An excerpt: (§1) This Example describes characterization of the cytotoxic activity of herein described anti-BKB2R monoclonal antibodies against a panel of cancer cell lines. BxPC-3 is a human adenocarcinoma cell line originally isolated from the pancreas (pancreatic cancer) (ATCC # CRL-1687; Tan et al., Cancer Invest. 4: 15-23, 1986. PubMed: 3754176). MV-4-11 is a human biphenotypic B myelomonocytic leukemia (mixed-lineage leukemia, MLL-AF4) cell line originally isolated from the peripheral blood (ATCC # CRL-959; Lange et al., Blood 70: 192-199, 1987. PubMed: 3496132). Hep G2 is a human hepatocellular carcinoma cell line isolated from the liver (liver cancer) (ATCC # HB-8065; Aden et al., Nature 282: 615-616, 1979. PubMed: 233137). RS4;11 is a human acute lymphoblastic leukemia (mixed-lineage leukemia, MLL-AF4) cell line isolated from the bone marrow (ATTC # CRL-1873) Stong et al., Blood 65: 21-31, 1985. PubMed: 3917311). HT-29 is a human colorectal adenocarcinoma (ATTC # HTB-38) cell line isolated from the colon (colon cancer). Fogh et al., J. Natl. Cancer Inst. 58: 209-214, 1977. PubMed: 833871). NUGC-4 is a human stomach carcinoma isolated from the stomach paragastiric lymph node (JCRB # JCRB0834; Akiyama et al., Jpn. J. Surg., 18: 438-446, 1988). […]
(§2) The anti-proliferative activity of test compounds against the indicated cell lines was evaluated in vitro using the ATCC's MTT Cell Proliferation Assay (Catalog No. 30-1010K). After the 120 hour incubation with drug (e.g., anti-BKB2R mAb or cisplatin), cell proliferation was measured by addition of MTT reagent to each well and incubation for an additional 4 hrs. […] Optical absorbance (570 nm) of the test wells was measured and then quantitated relative to control wells that received no drug. Results were expressed as percent inhibition versus compound concentration and graphed, as shown in FIGS. 19-25, for cell lines BxPC-3, MV-4;11, HepG2, RS-4;11, HT-29, NUGC-4, and PC-3, respectively.

The next data set relates to Hep G2. Kind of data set: MTT Cell Proliferation Assay, Hep G2. It counts as cell-based, human. To be noted: 120 hours of exposure.
Excerpt: as §1, §2

The subject of another data set is HT-29. In words: MTT Cell Proliferation Assay, HT-29. To be noted: 120 hours of exposure. Format: cell-based, human.
Excerpt: as §1, §2

In the next data set the test system is NUGC-4. Kind of data set: MTT Cell Proliferation Assay, NUGC-4. Format: cell-based, human. To be noted: 120 hours of exposure.
Excerpt: as §1, §2

For the next data set, the system named is PC-3. Kind of data set: MTT Cell Proliferation Assay, PC-3. Format: cell-based, human. The settings on record: 120 hours of exposure.
Excerpt: as §1, §2

A further data set relates to MV-4-11. Kind of data set: MTT Cell Proliferation Assay, MV-4-11. It counts as cell-based, human. The settings on record: 120 hours of exposure.
Excerpt: as §1, §2

The test system of the next data set is RS-4;11. Kind of data set: MTT Cell Proliferation Assay, RS-4;11. It counts as cell-based, human. To be noted: 120 hours of exposure.
Excerpt: as §1, §2

Data set [1] addresses T1, BKB2 receptor (Homo sapiens, UniProt P30411).
T1 sequence (P30411 1-391): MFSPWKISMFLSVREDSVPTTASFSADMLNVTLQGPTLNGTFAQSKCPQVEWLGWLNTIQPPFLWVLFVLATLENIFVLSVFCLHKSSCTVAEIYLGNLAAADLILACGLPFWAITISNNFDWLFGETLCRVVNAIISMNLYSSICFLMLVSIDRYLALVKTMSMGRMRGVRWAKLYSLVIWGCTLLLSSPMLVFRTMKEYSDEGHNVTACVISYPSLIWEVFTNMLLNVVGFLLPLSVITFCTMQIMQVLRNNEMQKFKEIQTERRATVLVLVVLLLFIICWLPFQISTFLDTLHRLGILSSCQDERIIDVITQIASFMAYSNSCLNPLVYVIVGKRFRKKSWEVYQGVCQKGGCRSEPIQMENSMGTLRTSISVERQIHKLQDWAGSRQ
In words: Intracellular calcium release in CHO-K1/B2/Gα15 cells (FLIPR Calcium 4). It counts as cell-based. The settings on record: bradykinin positive control (10 uM in the method); mean+/−SD, n=2. More on the design: expressed in transfected cells. On the technique in general: Calcium flux is commonly read through the fluorescence of an indicator in the cells.
Description: A stable CHO cell line expressing the human BKB2 receptor (CHO-K1/B2/Gα15) was used for the screening. The antibody was diluted to five different concentrations, from 0.5 mg/ml, via three-fold dilution increments, and screened on duplicate cell samples.
Expression and functional activity of the human BKB2 receptor in the CHO-K1/B2/Gα15 cell line were validated by exposure to the positive control, bradykinin.
To perform the assay, CHO-K1/B2/Gα15 cells were seeded in wells of a 384-well black-wall, clear-bottom plate at a density of 20,000 cells per well in 20 μL of growth medium 20 hours prior to the day of experiment, and maintained at 37° C./5% CO2. 20 μL of dye-loading solution (FLIPR™ Calcium 4 assay kit, Molecular Devices, Sunnyvale, Calif.) was added into each well and the plate was placed into a 37° C. incubator for 60 minutes, followed by 15 minutes at room temperature. The total reading time was 120 sec. After a 20-second reading to establish the baseline, the antibody or agonist were added to selected wells and the fluorescence signal was captured for another 100 seconds (21 s to 120 s). Readings from wells containing cells stimulated with assay buffer (0.03% Na3N PBS) containing 1% DMSO were chosen as the background values for screening; readings from wells containing cells stimulated with the agonist bradykinin (at 10 uM) were chosen as the positive control.

In data set [2] the target is T1, BKB2 receptor. The settings on record: BKB2 receptor agonist; cited from earlier work.
The conditions of data set [3]: cited from earlier work.
In data set [4] the target is human bradykinin B2 receptor (BKB2R) (human) (UniProt P30411). In words: cell-based or functional assay.
Data set [5] deals with T2, human BKB2R-derived epitope peptide (SEQ ID NO:73), PEG-biotin (human, also: PEG-biotin, site not given here).
T2 construct: also called immunogenic human BKB2R peptide fragment
T2 peptide: KEYSDEGHNVTAC
In words: BLI (Octet), peptide-PEG-biotin on streptavidin sensor, antibody 250 nM. The method, then: (§3) For the Octet study, antibodies were analyzed by kinetic titration of the antibodies. Antibodies were prepared in kinetic buffer (0.001 M phosphate buffered saline (NaCl 0.0138 M; KCl-0.00027 M); pH 7.4, at 25° C., 0.1 mg/ml BSA, 0.002% Tween and 0.005% Sodium Azide) followed by 1:2 serial dilutions.
(§4) Sensor Prep: Streptavidin biosensors (FortéBio Inc, Menlo Park, Calif.) were coated by incubation in a solution containing a peptide ([…]-PEG-biotin) (Biosyn, Lewisville, Tex.) at 50 μg/ml (300 seconds/1000 rpm shaking). 96 well half-volume plates were used for testing. 90 μl of sample was plated per well. Sensors were allowed to equilibrate to baseline in kinetic buffer (60 seconds/1000 rpm). The sensors were then placed into the various antibody dilutions to allow binding (association) to the probe for 500 seconds/1000 rpm, and measurements were taken. The sensors were then moved into kinetic buffer without antibody for dissociation (500 seconds/1000 rpm), and measurements were taken. Octet system software calculated kinetic constants for on rate/off rate/affinity.
(§5) For test humanized monoclonal antibodies, the highest concentration used was 500 nM followed by 1:2 dilutions. Each concentration was tested twice. The HC and LC represented the mouse original 5F12G1 VH and VL sequences.

Data set [6] concerns the target T2, human BKB2R-derived epitope peptide …. Kind of data set: BLI (Octet), peptide-PEG-biotin on streptavidin sensor, antibody 500 nM. The method in brief:
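Streptavidin biosensors loaded with biotin-PEG peptide at 50 μg/ml; antibodies in PBS-based kinetic buffer pH 7.4 with BSA and Tween at 25° C, 1:2 serial dilutions from 500 nM for humanized antibodies. Association and dissociation 500 s each; on rate, off rate and affinity fitted by instrument software, each concentration in duplicate.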
(In general: In BLI a coated tip is dipped into the sample, and binding shifts an interference pattern.)

Data set [7] shares this target. Kind of data set: BLI (Octet), peptide-PEG-biotin on streptavidin sensor, antibody 500 nM; antibody 500 nM (the 250 nM row r17 gives 4.41E-07 M). The method, then: as §3, §4, §5
For data set [8] the target is unchanged. In words: BLI (Octet), peptide-PEG-biotin on streptavidin sensor, antibody 833 nM.
For data set [9] the target is unchanged. In words: BLI (Octet), peptide-PEG-biotin on streptavidin sensor, antibody 1000 nM.
The target is the same in data set [10]. In words: BLI (Octet), peptide-PEG-biotin on streptavidin sensor, antibody 1667 nM.
For data set [11] the target is unchanged. In words: BLI (Octet), peptide-PEG-biotin on streptavidin sensor, antibody 3333 nM.
For data set [12] the target is unchanged. In words: BLI (Octet), peptide-PEG-biotin on streptavidin sensor, antibody 3333 nM; antibody 3333 nM row; the same constants are printed for all four ab 404 concentrations.

Where no end group is shown, it is not given here.

As for `N.N.[Cl][Pt][Cl]` [Cisplatin, cisplatin], the “EC 50 Values (ng/ml) BxPC-3” value with BxPC-3 was determined as 204 ng/mL. Besides, the EC50 in the data set on BxPC-3 (read-out: EC 50 BxPC-3, value in brackets) is 700 nM; in the data set on Hep G2 (read-out: EC 50 Hep G2, value in brackets), 800 nM; in the data set with HT-29 (read-out: EC 50 HT-29, value in brackets), 2300 nM; in the data set on NUGC-4 (read-out: EC 50 NUGC-4, value in brackets) it was 4.1 µM; with PC-3 (read-out: EC 50 PC-3, value in brackets), 2500 nM; with MV-4-11 (read-out: EC 50 MV-4-11, value in brackets) it was 1200 nM. Moreover, in the data set on RS-4;11 (read-out: EC 50 RS-4;11, value in brackets), the EC50 stood at 1100 nM. The “EC 50 Values (ng/ml) Hep G2” value with Hep G2 came out at 239 ng/mL. The “EC 50 Values (ng/ml) HT-29” value with HT-29 was determined as 698 ng/mL. Moreover, the “EC 50 Values (ng/ml) NUGC-4” value with NUGC-4 is 1200 ng/mL. Moreover, the “EC 50 Values (ng/ml) PC-3” value in the data set with PC-3 worked out at 753 ng/mL. For the same molecule, the “EC 50 Values (ng/ml) MV-4-11” value in the data set with MV-4-11 was found to be 347 ng/mL. The “EC 50 Values (ng/ml) RS-4;11” value with RS-4;11 came out at 344 ng/mL.
Regarding RPPGFSPFR [bradykinin], the percentage of activation at BKB2 receptor [1] is 93.1+/−5.7%.
The Kd is the concentration at which binding is half-saturated. Take kallidin: the Kd with BKB2 receptor [2] was around 0.89 nM. In [3], the “short lived, in vivo” value was around 30 s.
Consider “bradykinin (from UniProt P01042 381-389) (peptide)”, for which, in [4], the ED50 (intracellular calcium release, FLIPR, CHO-K1/B2/Gα15 cells) is 0.95 nm/l and the percentage of activation (intracellular calcium release, FLIPR, CHO-K1/B2/Gα15 cells) turned out to be 93.1%.

B1: humanized anti-BKB2R antibody L1/H1 (antibody, human IgG2, kappa, V domains shown)
VH: EVQLVESGGGLVQPGGSLRLSCAASGFTFSDYWMSWVRQAPGKGLEWVAEIRLKSDNYATHYAESVKGRFTISRDNAKNSLYLQMNSLRAEDTAVYYCTRDYYAMEYWGQGTLVTVSS
VL: DIVMTQSPLSLPVTPGEPASISCRSSQTIVHSNGKTYLEWYLQKPGQSPQLLIYKVSNRFSGVPDRFSGSGSGTDFTLKISRVEAEDVGVYYCFQASHVPYTFGQGTKLEIKR
notes: also called H1/L1
As a reminder, the koff is the rate constant with which the complex falls apart. What is called kon is the second-order rate constant of association. Read a low kon as slow association. As for B1, in [5], binding was put at a Kd of 441 nM, the “Max Response” value came out at 0.286, the koff was found to be 0.701 s⁻¹ and the on-rate (kon) amounted to 1.59e+06 M⁻¹ s⁻¹. Moreover, in data set [6], the “Max Response” value was determined as 0.216, the koff was found to be 0.942 s⁻¹ and the on-rate constant (kon) is 404000 M⁻¹ s⁻¹. The same molecule returned a Kd in data set [7] of 2330 nM.

B2: murine monoclonal anti-BKB2R antibody 5F12G1 (antibody, IgG2b, V domains shown)
VH: EVKLEESGGGLVQPGGSMKLSCVVSGFTFSDYWMSWVRHSPEMGLEWVAEIRLKSDNYATHYAESVKGRFTISRDDSKSRLYLQINSLRGEDTGIYYCTRDYYAMEYWGQGTSVTVSS
VL: DVVMTQTPLSLPVSLGDQASISCRSSQTIVHSNGKTYLEWYLQKPGQSPKLLIYKVSNRFSGVPDRFSGSGSGTEFTLKISRVETEDLGVYYCFQASHVPYTFGGGTKLEIK
notes: also called F512G1
Consider B2, for which the dissociation constant (Kd) in [8], in data set [9], in [10] and in [12] was 462 nM in each case. Further, the off-rate (koff) in data set [8], in data set [9], in [10] and in data set [11] was 0.00109 s⁻¹ each time. The association rate constant (kon) in [8], in data set [9], in data set [10] and in [11] was 2350 M⁻¹ s⁻¹ throughout.

Source of the values: US20140017242A1, “ANTI-BRADYKININ B2 RECEPTOR (BKB2R) MONOCLONAL ANTIBODY” (Diamedica, Inc., priority 2010, published 2014).
